*1 amine or outer side, *2 acyl side, *3 side chain or, on linkers, in order; H or OH if unused. Where no end group is shown, it is not given here. [ ]: non-standard residue; d: D form. CEL = Nε-carboxy-ethyl-lysine, CC(NCCCC[C@H](N[*:1])C(=O)[*:2])C(=O)[*:3]; CML = Nε-carboxy-methyl-lysine, O=C([C@H](CCCCNCC(=O)[*:3])N[*:1])[*:2]

One data set relates to RAGE. The settings on record: free amino acid, not embedded in a peptide; ref Xie et al., 2008; cited from earlier work.
Another data set has as its target V domain of RAGE (Homo sapiens, UniProt Q15109). The data set can be described thus: Tryptophan fluorescence titration, wild type V domain. The settings on record: single site binding isotherm, 25 °C, pH 6.5, 100 mM NaCl.
The next data set addresses R98A V domain of RAGE (human, UniProt Q15109 24-125, R98A). The data set can be described thus: other fluorescence titration.
The target of data set [1] is K52A, R98A V domain of RAGE (human, UniProt Q15109 24-125, K52A | R98A). The data set can be described thus: other fluorescence titration.
Chain of K52A, R98A V domain of RAGE (Q15109 24-125 K52A/R98A): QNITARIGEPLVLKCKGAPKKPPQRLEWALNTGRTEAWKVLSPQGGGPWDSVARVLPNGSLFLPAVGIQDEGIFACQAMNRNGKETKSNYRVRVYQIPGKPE
The next data set addresses K52A V domain of RAGE (human, UniProt Q15109 24-125, K52A). The data set can be described thus: other fluorescence titration.
Data set [2] concerns the target V domain of RAGE (wild type) (human, UniProt Q15109 24-125). The data set can be described thus: other fluorescence titration.
The data set “NMR gradient diffusion” deals with the molecule itself. The data set can be described thus: NMR gradient diffusion.

Chain of R98A V domain of RAGE (Q15109 24-125 R98A): as the sequence (Q15109 24-125 K52A/R98A) above, with A29K counted along it
Chain of K52A V domain of RAGE (Q15109 24-125 K52A): as the sequence (Q15109 24-125 K52A/R98A) above, with A75R counted along it

For the molecule `CC(NCCCC[C@H](N)C(=O)O)C(=O)O` (stereo partly shown) [CEL, Nε-carboxy-ethyl-lysine], the “binding to RAGE” value in the data set with RAGE is on record as “do not bind”. Turning to `N[C@@H](CCCCNCC(=O)O)C(=O)O` [CML, Nε-carboxy-methyl-lysine], the “binding to RAGE” value in the data set with RAGE was “do not bind”. `CC(NCCCC[C@H](NC(=O)[C@H](Cc1ccccc1)NC(=O)[C@H](CCC(=O)O)NC(=O)[C@@H](N)CC(=O)O)C(=O)N[C@@H](C)C(=O)N[C@@H](CC(=O)O)C(=O)N[C@@H](CCC(=O)O)C(=O)O)C(=O)O` (stereo partly shown) [DEF(CEL)ADE] registered a Kd on V domain of RAGE of 104 ± 5 µM.

With `CC(C)C[C@H](NC(=O)[C@H](CC(=O)O)NC(=O)[C@H](CCCCNC(C)C(=O)O)NC(=O)[C@@H](N)Cc1ccccc1)C(=O)NCC(=O)N[C@@H](CCC(=O)O)C(=O)N[C@@H](CCC(=O)O)C(=O)O` (stereo partly shown) [F(CEL)DLGEE], the Kd at V domain of RAGE amounted to 93 ± 6 µM. As for DEF[CEL]ADE [DEF(CEL)ADE], the Kd with R98A V domain of RAGE was found to be 685 ± 26 µM; in data set [1], 912 ± 42 µM; with K52A V domain of RAGE, 560 ± 32 µM.

Molecule DEF[CML]ADE [DEF(CML)ADE] displayed a Kd in data set [2] of 97 ± 3 µM.

B1: VC1 domain of RAGE (wild type) (domain or fragment, human, UniProt Q15109 23-243, looked up)
chain: AQNITARIGEPLVLKCKGAPKKPPQRLEWKLNTGRTEAWKVLSPQGGGPWDSVARVLPNGSLFLPAVGIQDEGIFRCQAMNRNGKETKSNYRVRVYQIPGKPEIVDSASELTAGVPNKVGTCVSEGSYPAGTLSWHLDGKPLVPNEKGVSVKEQTRRHPETGLFTLQSELMVTPARGGDPRPTFSCSFSPGLPRHRALRTAPIQPRVWEPVPLEEVQLVVE
For the molecule B1, the binding result in the data set “NMR gradient diffusion” is reported as “binds”.

In data set [2], F[CML]DLGEE [F(CML)DLGEE] gave a Kd of 87 ± 5 µM.

As usually defined, the Kd is the free concentration of one partner at which half of the binding sites on the other are occupied at equilibrium, for simple one-to-one binding. High values mean lower affinity, low ones higher affinity.

These data come from PMC3150472 (Structure (London, England : 1993), 2011).
